The text below walks through data of paper PMC1635277.

Common to all, as to experiment: purified protein
Common to all, as to conditions: 20 mM Tris-HCl pH 8.5, 50 mM NaCl, 100 µg/ml BSA, 37°C

Data set [1] has as its system Nc1nc2c(ncn2[C@@H]2O[C@H](COP(=O)(O)O[C@H]3[C@@H](O)[C@H](n4cnc5c(N)ncnc54)O[C@@H]3CO)[C@@H](OP(=O)(O)OC[C@H]3O[C@@H](n4ccc(=O)[nH]c4=O)[C@H](O)[C@@H]3OP(=O)(O)OC[C@H]3O[C@@H](n4cnc5c(N)ncnc54)[C@H](O)[C@@H]3O)[C@H]2O)c(=O)[nH]1.
Data set [2] has as its system Nc1nc2c(ncn2[C@@H]2O[C@H](COP(=O)(O)O[C@H]3[C@@H](O)[C@H](n4ccc(=O)[nH]c4=O)O[C@@H]3CO)[C@@H](OP(=O)(O)OC[C@H]3O[C@@H](n4ccc(=O)[nH]c4=O)[C@H](O)[C@@H]3OP(=O)(O)OC[C@H]3O[C@@H](n4cnc5c(N)ncnc54)[C@H](O)[C@@H]3O)[C@H]2O)c(=O)[nH]1.
Data set [3] has as its system Nc1nc2c(ncn2[C@@H]2O[C@H](COP(=O)(O)O[C@H]3[C@@H](O)[C@H](n4ccc(=O)[nH]c4=O)O[C@@H]3CO)[C@@H](OP(=O)(O)OC[C@H]3O[C@@H](n4ccc(=O)[nH]c4=O)[C@H](O)[C@@H]3OP(=O)(O)O)[C@H]2O)c(=O)[nH]1.
The test system of data set [4] is Nc1nc2c(ncn2[C@@H]2O[C@H](CO)[C@@H](OP(=O)(O)OC[C@H]3O[C@@H](n4ccc(=O)[nH]c4=O)[C@H](O)[C@@H]3OP(=O)(O)OC[C@H]3O[C@@H](n4cnc5c(N)ncnc54)[C@H](O)[C@@H]3O)[C@H]2O)c(=O)[nH]1.
For data set [5], the system named is Nc1nc2c(ncn2[C@@H]2O[C@H](CO)[C@@H](OP(=O)(O)OC[C@H]3O[C@@H](n4ccc(=O)[nH]c4=O)[C@H](O)[C@@H]3OP(=O)(O)O)[C@H]2O)c(=O)[nH]1.
In data set [6] the test system is Nc1nc2c(ncn2[C@@H]2O[C@H](COP(=O)(O)O[C@H]3[C@@H](O)[C@H](n4ccc(=O)[nH]c4=O)O[C@@H]3CO)[C@@H](OP(=O)(O)OC[C@H]3O[C@@H](n4ccc(=O)[nH]c4=O)[C@H](O)[C@@H]3O)[C@H]2O)c(=O)[nH]1.

As for “E5-CRD (colicin E5 C-terminal ribonuclease domain) (Escherichia coli)”, the Km in data set [1] was 90.6 (23) μM; in data set [2], 59.5 (18) μM; in data set [3], 41.3 (16) μM; in data set [4], 53.6 (16) μM; in data set [5] it was 32.9 (5.5) μM; in data set [6], 143 (38) μM. In addition, the kcat in data set [1] turned out to be 65.8 s⁻¹; in data set [2], 84.2 s⁻¹; in data set [3], 34 s⁻¹; in data set [4], 11.7 s⁻¹; in data set [5], 42.9 s⁻¹; in data set [6], 3.57 s⁻¹. Moreover, the kcat/Km is 730000 M⁻¹ s⁻¹ in data set [1]; 1.41e+06 M⁻¹ s⁻¹ in data set [2]; 823000 M⁻¹ s⁻¹ in data set [3]; 218000 M⁻¹ s⁻¹ in data set [4]; 1.3e+06 M⁻¹ s⁻¹ in data set [5]; 25100 M⁻¹ s⁻¹ in data set [6].
